Substrate: C[C@@H]1O[C@@H](Oc2ccc([N+](=O)[O-])cc2)[C@H](O)[C@H](O)[C@H]1O
Test: purified protein
Details: pH 5.0, 37 °C (b12; Experimental b31 prints Tris 200 mM, pH 6.0)

B1: DtRha (Dictyoglomus thermophilum H-6-12) (protein)
chain: MKSSNIYSPFDLKCEFTTNPLGVDKKNPIFSWKLRHLEKNEKQTAYQVIVSSSLETINDNIGDVWDTGKVLSSEQVIKYEGKELEPCKVYFWKVRWWDSKDQESPFSVVNTFETGLMNEENWKAKWITKKEHKYEVYSPDGAPFGLNYTIAYAPMFRKSFSISKKIKRARVYIAGLGLYELYINGERIGDRVLDPGQTDYKKRVLYTVYDVSKNIRDGKNAIGVILGNGRYVKEYGYDFPKLIIQVLVEYEDDSIEWIVSDESWKTTYGPITLNSLYHGEIYDGRKEIKGWNLPDFDDSTWENAILAEPPGGKLYSEIYPPIRITKTIKPIKMWSPEPGTYVYDFGQNYTGWIKIKVRTNESGKEIRIRHAELTYEDGTLNYSTNRTALATDVYITKGEGYEEYEPRFTYHGFRYVEILGYPGVPTLEDIEGKVVHTAVESNGEFICSNELINKIHHNIIWGQLSNLMSIPTDCPQRDERMGWMGDAQLSAEEAIFNFDMIGFYRKYLNDIRDAQKENGSLSDVIPPYWSIYPGDPAWSTAYITIAWYLYQYYGDKYVLEEHYEGFKKYVEFLKKLAPDYIVSFYKYGDWCQPGTVRPKDNSGELTSTFYFYHDVITLSKIAKLLGKEADYKYYSELADKIKSAFNKKFLKEKAYASIPTELSEENVKALLEKYPEDIKDFLRQQFTILSSLGMFTSQTLNTLPLYLNLVPEDKVQDVLKTLLEDIIIRHDYHLDTGIVATRYIFDVLTSYGYDEVAYKIVNQKTYPSFGYMIEEGATTLWERWEKLTSTGMNSHNHIMFGSVDAWFYRVIAGVRVGEPGWNKIIFEPHPVGDLKYAKARLNTIKGEVEINWQKTENIFSMRISVPVNSEGEVHVPKLFERFVVKEGDNIIYEKKGDLEENEKYIVIRVGSGSYNFYMEKI
Which Km does the source give for B1 here?
The Km was 54.00 ± 0.03 µM.

And the kcat?
The kcat was 0.17 ± 0.01 s⁻¹.
